Target: T1, biotinylated human D-C5a (mirror-image C5a) (Homo sapiens) (UniProt P01031)
T1 sequence: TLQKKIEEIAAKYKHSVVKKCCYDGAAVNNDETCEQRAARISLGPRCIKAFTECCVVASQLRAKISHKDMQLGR
Assay: pulldown

Sequence	Kd (37 C, 1 mM MgCl2, 1 mM CaCl2)	further results
GUGCUGGGUUCGGACGUGGCAUGUUCCUUGAUAAACGGUUGCCAGCAC [182-A8]	3.2 nM	
GUACUGCGUUCGGACGUGGCAUGUUCCUUGACAAACGGUUGGCAGUAC [182-E5]	2.4 nM	
GCUGGGCGUGUUUACUUGCUUAAUAGGGGGCCCAGC [185-H3-001]	5 nM	
GCUGAACACGCCGCGUAGGACCCAAUGGGUAGAAUGGGCAGC [179-A3-015]		Kd (reference for type C ranking): > 7.2 nM
AGCGUGCUUGUCCGAUUGGCGGCACCCUUGCGGGACUGGGGAGUACGCU [172-D7-000]	30 nM	
AGCGUGCUCGUCCGAUUGGCGGCACCCUUGCGGGACUGGGGAGUACGCU [172-D7-003]		Kd (U to C at 3' end of 5'-terminal stretch): 372 nM
GUGCUGAACACGCCGCGUAGGACUUCAAUGGAGUAGAAUGGGCAGCAC [179-A3]	7.2 nM	
GUGCUGCGUUCGGACGUGGCAUGUUCCUUGACAAACGGUUGGCAGCAC [182-C5]	2.2 nM	
GUGCUUGUCCGAUUGGCGGCACCCUUGCGGGACUGGGGAGUAC [172-D7-002]		Kd (six base pair terminal helix): 108 nM

From patent publication US20110046207
